Test results published in PMC9935853.

Target: S. pombe respiratory complex IV (cytochrome c oxidase), affinity purified through a C-terminal twin-strep tag on subunit Cox5 (S. pombe) (UniProt P07657)
Experiment: pull-down + SEC; membranes solubilised in 1% GDN; StrepTactin column through Cox5-2xstrep, then Superose 6 Increase in 25 mM KH2PO4 pH 8.0, 150 mM KCl, 0.01% GDN; peaks analysed by reduced minus oxidized difference spectra

Sequence of UniProt P07657 (P07657 whole entry, looked up, tested part not stated, one chain of several): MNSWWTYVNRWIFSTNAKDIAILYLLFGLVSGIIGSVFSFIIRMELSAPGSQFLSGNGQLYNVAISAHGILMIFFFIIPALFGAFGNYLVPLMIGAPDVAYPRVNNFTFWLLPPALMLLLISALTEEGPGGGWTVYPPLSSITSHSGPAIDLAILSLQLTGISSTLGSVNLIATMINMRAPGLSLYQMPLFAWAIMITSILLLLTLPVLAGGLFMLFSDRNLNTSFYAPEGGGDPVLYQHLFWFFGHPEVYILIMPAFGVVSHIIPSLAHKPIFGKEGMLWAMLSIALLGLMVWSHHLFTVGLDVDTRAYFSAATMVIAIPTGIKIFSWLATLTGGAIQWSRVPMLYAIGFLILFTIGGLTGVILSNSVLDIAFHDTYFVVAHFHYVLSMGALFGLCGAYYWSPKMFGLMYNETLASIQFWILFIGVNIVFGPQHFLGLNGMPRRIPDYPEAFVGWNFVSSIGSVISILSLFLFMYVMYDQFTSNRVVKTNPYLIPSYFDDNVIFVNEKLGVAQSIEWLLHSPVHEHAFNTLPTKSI

stoichiometry N: 2 CIII:CIV
Substance: S. pombe respiratory complex III (cyt. bc1 complex)
